Experimental data from publication PMC8376870 (2021).

Biological target: GST-G511-V540 (TRPV6 S5 fragment) (Homo sapiens (Human), UniProt Q9H1D0)
Test: in vitro pull-down (GST/His-MBP) with western blot

GST-G511-V540 (TRPV6 S5 fragment), sequence (Q9H1D0 511-540): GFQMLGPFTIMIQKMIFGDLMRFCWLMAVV

B1: His-MBP-A603-L632 (TRPV6 S6 fragment) (protein)
chain: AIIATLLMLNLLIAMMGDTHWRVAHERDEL
binding result: binds
